Molecular target: human TrkB on CHO cells (CHO-K1-hTrkB/pSRE-Luc) (human) (UniProt Q16620)
Assay: cell-based or functional assay

human TrkB on CHO cells (CHO-K1-hTrkB/pSRE-Luc) (human), sequence (Q16620 32-822): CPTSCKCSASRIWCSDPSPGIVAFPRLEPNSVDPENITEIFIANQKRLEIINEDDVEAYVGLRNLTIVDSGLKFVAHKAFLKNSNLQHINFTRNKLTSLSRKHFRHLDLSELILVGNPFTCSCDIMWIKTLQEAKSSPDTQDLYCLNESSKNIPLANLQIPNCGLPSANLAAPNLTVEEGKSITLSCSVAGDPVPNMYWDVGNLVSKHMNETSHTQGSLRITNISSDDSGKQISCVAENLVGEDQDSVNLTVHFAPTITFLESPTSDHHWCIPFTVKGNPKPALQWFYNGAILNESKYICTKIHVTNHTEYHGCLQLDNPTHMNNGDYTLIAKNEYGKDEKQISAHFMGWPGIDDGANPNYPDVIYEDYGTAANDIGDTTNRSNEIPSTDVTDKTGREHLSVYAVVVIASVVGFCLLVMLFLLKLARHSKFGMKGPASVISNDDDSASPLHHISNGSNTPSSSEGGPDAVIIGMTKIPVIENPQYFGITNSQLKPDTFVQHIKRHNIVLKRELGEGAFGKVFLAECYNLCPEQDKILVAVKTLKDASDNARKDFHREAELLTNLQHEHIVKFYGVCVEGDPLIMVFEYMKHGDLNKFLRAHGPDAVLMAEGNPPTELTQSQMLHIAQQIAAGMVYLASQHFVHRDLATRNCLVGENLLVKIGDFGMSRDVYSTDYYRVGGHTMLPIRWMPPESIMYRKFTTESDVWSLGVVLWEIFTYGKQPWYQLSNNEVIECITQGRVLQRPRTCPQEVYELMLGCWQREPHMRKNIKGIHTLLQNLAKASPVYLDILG

Binder | BDNF activity in TrkBluciferase assay, EC50 [% or nM] | BDNF activity in TrkBluciferase assay, EC50 [nM] | relative BDNF activity in TrkB luciferase assay, EC50 [%]
pre-pro(IgA)-BDNF(-RGR)-His6 (ligand) MTILFLTMVISYFGCMKAAPMKEANIRGQGGLAYPGVRTHGTLESVNGPKAGSRGLTSLADTFEHVIEELLDEDQKVRPNEENNKDADLYTSRVMLSSQVPLEPPLLFLLEEYKNYLDAANMSMGSVVAPPAPHSDPARRGELSVCDSISEWVTAADKKTAVDMSGGTVTVLEKVPVSKGQLKQYFYETKCNPMGYTKEGCRGIDKRHWNSQCRTTQSYVRALTMDSKKRIGWRFIRIDTSCVCTLTIKGSGHHHHHH | 282% | 9.6 | –
pre-pro(R54A)-BDNF(-RGR)-His6 (ligand) HSDPARRGELSVCDSISEWVTAADKKTAVDMSGGTVTVLEKVPVSKGQLKQYFYETKCNPMGYTKEGCRGIDKRHWNSQCRTTQSYVRALTMDSKKRIGWRFIRIDTSCVCTLTIKGSGHHHHHH | – | 1.2 | –
pre-pro-BDNF(-RGR)-opsin(S)-His6 (ligand) APMKEANIRGQGGLAYPGVRTHGTLESVNGPKAGSRGLTSLADTFEHVIEELLDEDQKVRPNEENNKDADLYTSRVMLSSQVPLEPPLLFLLEEYKNYLDAANMSMRVRRHSDPARRGELSVCDSISEWVTAADKKTAVDMSGGTVTVLEKVPVSKGQLKQYFYETKCNPMGYTKEGCRGIDKRHWNSQCRTTQSYVRALTMDSKKRIGWRFIRIDTSCVCTLTIKGSGNGTEGPNFYVPFSNATGSGHHHHHH | – | 0.3 | –
pre-pro(His6-R54A)-BDNF(-RGR) (ligand) MTILFLTMVISYFGCMKAAPMKEANIHHHHHHAPMKEANIRGQGGLAYPGVRTHGTLESVNGPKAGSAGLTSLADTFEHVIEELLDEDQKVRPNEENNKDADLYTSRVMLSSQVPLEPPLLFLLEEYKNYLDAANMSMRVRRHSDPARRGELSVCDSISEWVTAADKKTAVDMSGGTVTVLEKVPVSKGQLKQYFYETKCNPMGYTKEGCRGIDKRHWNSQCRTTQSYVRALTMDSKKRIGWRFIRIDTSCVCTLTIK | – | 1.2 | –
pre-pro-BDNF(-RGR; G62N, Y63G, Q79T)-T7-His6 (ligand) APMKEANIRGQGGLAYPGVRTHGTLESVNGPKAGSRGLTSLADTFEHVIEELLDEDQKVRPNEENNKDADLYTSRVMLSSQVPLEPPLLFLLEEYKNYLDAANMSMRVRRHSDPARRGELSVCDSISEWVTAADKKTAVDMSGGTVTVLEKVPVSKGQLKQYFYETKCNPMNGTKEGCRGIDKRHWNSTCRTTQSYVRALTMDSKKRIGWRFIRIDTSCVCTLTIKGSGMASMTGGQQMGHHHHHH | 0.13 nM | – | –
pre-pro-BDNF(-RGR)-opsin(L)-His6 (ligand) APMKEANIRGQGGLAYPGVRTHGTLESVNGPKAGSRGLTSLADTFEHVIEELLDEDQKVRPNEENNKDADLYTSRVMLSSQVPLEPPLLFLLEEYKNYLDAANMSMRVRRHSDPARRGELSVCDSISEWVTAADKKTAVDMSGGTVTVLEKVPVSKGQLKQYFYETKCNPMGYTKEGCRGIDKRHWNSQCRTTQSYVRALTMDSKKRIGWRFIRIDTSCVCTLTIKGSGNGTEGPNFYVPFSNATGVVRHHHHHH | 555% | 0.3 | 10
pre-pro-BDNF(-RGR)-opsin(S)-T7-His6 (ligand) APMKEANIRGQGGLAYPGVRTHGTLESVNGPKAGSRGLTSLADTFEHVIEELLDEDQKVRPNEENNKDADLYTSRVMLSSQVPLEPPLLFLLEEYKNYLDAANMSMRVRRHSDPARRGELSVCDSISEWVTAADKKTAVDMSGGTVTVLEKVPVSKGQLKQYFYETKCNPMGYTKEGCRGIDKRHWNSQCRTTQSYVRALTMDSKKRIGWRFIRIDTSCVCTLTIKGSGNGTEGPNFYVPFSNATGSGMASMTGGQQMGHHHHHH | – | 0.3 | –
pre-pro(His6-R54A-IgA)-BDNF(-RGR) (ligand) MTILFLTMVISYFGCMKAAPMKEANIHHHHHHAPMKEANIRGQGGLAYPGVRTHGTLESVNGPKAGSAGLTSLADTFEHVIEELLDEDQKVRPNEENNKDADLYTSRVMLSSQVPLEPPLLFLLEEYKNYLDAANMSMGSVVAPPAPHSDPARRGELSVCDSISEWVTAADKKTAVDMSGGTVTVLEKVPVSKGQLKQYFYETKCNPMGYTKEGCRGIDKRHWNSQCRTTQSYVRALTMDSKKRIGWRFIRIDTSCVCTLTIK | – | 9.6 | –

Further lines, results first:

BDNF activity in TrkBluciferase assay, EC50 [% or nM] | BDNF activity in TrkBluciferase assay, EC50 [nM] | relative BDNF activity in TrkB luciferase assay, EC50 [%] | Binder
– | 9.6 | – | pre-pro-BDNF, RGR deleted, GSG, C-terminal His6, R54A, IgA protease cleavage site (row 2 of Table 9) (ligand) APMKEANIRGQGGLAYPGVRTHGTLESVNGPKAGSAGLTSLADTFEHVIEELLDEDQKVRPNEENNKDADLYTSRVMLSSQVPLEPPLLFLLEEYKNYLDAANMSMGSVVAPPAPHSDPARRGELSVCDSISEWVTAADKKTAVDMSGGTVTVLEKVPVSKGQLKQYFYETKCNPMGYTKEGCRGIDKRHWNSQCRTTQSYVRALTMDSKKRIGWRFIRIDTSCVCTLTIKGSGHHHHHH
203% | – | – | pre-pro-BDNF(-RGR; G62N, Y63G, R81N)-T7-His6 (ligand) APMKEANIRGQGGLAYPGVRTHGTLESVNGPKAGSRGLTSLADTFEHVIEELLDEDQKVRPNEENNKDADLYTSRVMLSSQVPLEPPLLFLLEEYKNYLDAANMSMRVRRHSDPARRGELSVCDSISEWVTAADKKTAVDMSGGTVTVLEKVPVSKGQLKQYFYETKCNPMNGTKEGCRGIDKRHWNSQCNTTQSYVRALTMDSKKRIGWRFIRIDTSCVCTLTIKGSGMASMTGGQQMGHHHHHH
0.21 nM | – | – | pre-pro-BDNF(-RGR; K25N, Q79T)-T7-His6 (ligand) APMKEANIRGQGGLAYPGVRTHGTLESVNGPKAGSRGLTSLADTFEHVIEELLDEDQKVRPNEENNKDADLYTSRVMLSSQVPLEPPLLFLLEEYKNYLDAANMSMRVRRHSDPARRGELSVCDSISEWVTAADNKTAVDMSGGTVTVLEKVPVSKGQLKQYFYETKCNPMGYTKEGCRGIDKRHWNSTCRTTQSYVRALTMDSKKRIGWRFIRIDTSCVCTLTIKGSGMASMTGGQQMGHHHHHH
– | 0.8 | – | pre-pro-BDNF(-RGR; R81N)-T7-His6 (ligand, N-glycan at the introduced site (degree of glycosylation ++)) APMKEANIRGQGGLAYPGVRTHGTLESVNGPKAGSRGLTSLADTFEHVIEELLDEDQKVRPNEENNKDADLYTSRVMLSSQVPLEPPLLFLLEEYKNYLDAANMSMRVRRHSDPARRGELSVCDSISEWVTAADKKTAVDMSGGTVTVLEKVPVSKGQLKQYFYETKCNPMGYTKEGCRGIDKRHWNSQCNTTQSYVRALTMDSKKRIGWRFIRIDTSCVCTLTIKGSGMASMTGGQQMGHHHHHH
0.069 nM | – | – | pre-pro-BDNF(-RGR; T35N, G62N, Y63G, Q79T)-T7-His6 (ligand) APMKEANIRGQGGLAYPGVRTHGTLESVNGPKAGSRGLTSLADTFEHVIEELLDEDQKVRPNEENNKDADLYTSRVMLSSQVPLEPPLLFLLEEYKNYLDAANMSMRVRRHSDPARRGELSVCDSISEWVTAADKKTAVDMSGGNVTVLEKVPVSKGQLKQYFYETKCNPMNGTKEGCRGIDKRHWNSTCRTTQSYVRALTMDSKKRIGWRFIRIDTSCVCTLTIKGSGMASMTGGQQMGHHHHHH
0.039 nM | – | – | pre-pro-BDNF(-RGR; T35N; G62N; Y63G)-T7-His6 (ligand) APMKEANIRGQGGLAYPGVRTHGTLESVNGPKAGSRGLTSLADTFEHVIEELLDEDQKVRPNEENNKDADLYTSRVMLSSQVPLEPPLLFLLEEYKNYLDAANMSMRVRRHSDPARRGELSVCDSISEWVTAADKKTAVDMSGGNVTVLEKVPVSKGQLKQYFYETKCNPMNGTKEGCRGIDKRHWNSQCRTTQSYVRALTMDSKKRIGWRFIRIDTSCVCTLTIKGSGMASMTGGQQMGHHHHHH
– | 6.9 | – | pre-pro-BDNF(-RGR; Q79S)-T7-His6 (ligand) APMKEANIRGQGGLAYPGVRTHGTLESVNGPKAGSRGLTSLADTFEHVIEELLDEDQKVRPNEENNKDADLYTSRVMLSSQVPLEPPLLFLLEEYKNYLDAANMSMRVRRHSDPARRGELSVCDSISEWVTAADKKTAVDMSGGTVTVLEKVPVSKGQLKQYFYETKCNPMGYTKEGCRGIDKRHWNSSCRTTQSYVRALTMDSKKRIGWRFIRIDTSCVCTLTIKGSGMASMTGGQQMGHHHHHH
276% | – | – | pre-pro-BDNF(-RGR; K25N; G62N; Y63G)-T7-His6 (ligand) APMKEANIRGQGGLAYPGVRTHGTLESVNGPKAGSRGLTSLADTFEHVIEELLDEDQKVRPNEENNKDADLYTSRVMLSSQVPLEPPLLFLLEEYKNYLDAANMSMRVRRHSDPARRGELSVCDSISEWVTAADNKTAVDMSGGTVTVLEKVPVSKGQLKQYFYETKCNPMNGTKEGCRGIDKRHWNSQCRTTQSYVRALTMDSKKRIGWRFIRIDTSCVCTLTIKGSGMASMTGGQQMGHHHHHH
0.064 nM | – | – | pre-pro-BDNF(-RGR; T35N, Q79T)-T7-His6 (ligand) APMKEANIRGQGGLAYPGVRTHGTLESVNGPKAGSRGLTSLADTFEHVIEELLDEDQKVRPNEENNKDADLYTSRVMLSSQVPLEPPLLFLLEEYKNYLDAANMSMRVRRHSDPARRGELSVCDSISEWVTAADKKTAVDMSGGNVTVLEKVPVSKGQLKQYFYETKCNPMGYTKEGCRGIDKRHWNSTCRTTQSYVRALTMDSKKRIGWRFIRIDTSCVCTLTIKGSGMASMTGGQQMGHHHHHH
0.05 nM | – | – | pre-pro-BDNF(-RGR; Q79T, R81N)-T7-His6 (ligand) APMKEANIRGQGGLAYPGVRTHGTLESVNGPKAGSRGLTSLADTFEHVIEELLDEDQKVRPNEENNKDADLYTSRVMLSSQVPLEPPLLFLLEEYKNYLDAANMSMRVRRHSDPARRGELSVCDSISEWVTAADKKTAVDMSGGTVTVLEKVPVSKGQLKQYFYETKCNPMGYTKEGCRGIDKRHWNSTCNTTQSYVRALTMDSKKRIGWRFIRIDTSCVCTLTIKGSGMASMTGGQQMGHHHHHH

Molecular target: human TrkB on CHO cells (CHO-K1-hTrkB/pSRE-Luc) (human) (UniProt Q16620)
Assay: cell-based or functional assay
Remark: another data set of the same source

BDNF activity in TrkBluciferase assay, EC50 [nM] | Binder
3 | pre-pro-BDNF-T7-His6 (ligand) APMKEANIRGQGGLAYPGVRTHGTLESVNGPKAGSRGLTSLADTFEHVIEELLDEDQKVRPNEENNKDADLYTSRVMLSSQVPLEPPLLFLLEEYKNYLDAANMSMRVRRHSDPARRGELSVCDSISEWVTAADKKTAVDMSGGTVTVLEKVPVSKGQLKQYFYETKCNPMGYTKEGCRGIDKRHWNSQCRTTQSYVRALTMDSKKRIGWRFIRIDTSCVCTLTIKRGRGSGMASMTGGQQMGHHHHHH
0.36 | pre-pro-BDNF(-RGD)-myc-His6 (ligand) APMKEANIRGQGGLAYPGVRTHGTLESVNGPKAGSRGLTSLADTFEHVIEELLDEDQKVRPNEENNKDADLYTSRVMLSSQVPLEPPLLFLLEEYKNYLDAANMSMRVRRHSDPARRGELSVCDSISEWVTAADKKTAVDMSGGTVTVLEKVPVSKGQLKQYFYETKCNPMGYTKEGCRGIDKRHWNSQCRTTQSYVRALTMDSKKRIGWRFIRIDTSCVCTLTIKGSGEQKLISEEDLGSGHHHHHH

From patent US20190271021A1
